For this data set, the target named is 7ZFP Active-A (artificial (Sp1-derived zinc fingers)). Briefly: EMSA; EMSA: 25 mM HEPES, 100 mM KCl, 1 mM EDTA, 10 mM MgCl2, 0.1% NP40, 1% glycerol, 1 mM DTT; 30 min on ice; pH not stated. Particulars: protein: recombinant; tags: C-terminal 6xHis; label: biotin; blunt. On the technique in general: Mobility shift assays separate free from complexed probe on a gel.
Chain of 7ZFP Active-A (artificial (Sp1-derived zinc fingers)) (chain, as listed by the source): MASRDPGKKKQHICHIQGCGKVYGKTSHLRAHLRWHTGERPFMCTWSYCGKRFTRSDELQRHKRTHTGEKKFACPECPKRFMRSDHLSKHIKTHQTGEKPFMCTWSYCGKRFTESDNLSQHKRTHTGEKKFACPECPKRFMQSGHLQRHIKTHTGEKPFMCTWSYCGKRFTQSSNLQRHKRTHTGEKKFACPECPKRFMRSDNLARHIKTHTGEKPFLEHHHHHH

B1: Probe-1 (p16 promoter) (dsDNA)
DNA 1: AAGGTTGTATCGCGGAGGAAGGAAACGGGGCGGGGGCGGATTTCT
DNA 2: AGAAATCCGCCCCCGCCCCGTTTCCTTCCTCCGCGATACAACCTT
Take B1: the binding result was “binds”.
